From patent US9907791B2, “Ron inhibitors for use in preventing and treating bone loss” (UNIVERSITY OF UTAH RESEARCH FOUNDATION, priority 2014, dated 2018)

How the values were obtained:
Type in all cases: cell-based, mice
[1] = system: bone marrow osteoclasts; experiment: Osteoclast resorption assay; conditions: 100 pg/mL MSP daily day 9 to 12
Protocol: Bone marrow osteoclasts were generated from 6 to 8 week old WT and RonTK−/− mice. Briefly, bone marrow was isolated from hindlimb bones and plated in α-MEM media containing 10% heat-inactivated fetal bovine serum (FBS, Sigma, St. Louis, Mo.), 100 units/mL penicillin-streptomycin (Hyclone), and 33 ng/mL human macrophage colony-stimulating factor (hM-CSF) (PeproTech, Rocky Hill, N.J.) for 24 hours. Non-adherent cells were collected and frozen for later use. To assess resorption activity, bone marrow precursor cells were thawed and seeded at a density of 1×10^5 cells per well in BioCoat Osteologic slides (BD Biosciences, San Jose, Calif.) in α-MEM media containing 10% FBS and antibiotics. After adhering overnight, media was removed and media containing 33 ng/mL hM-CSF and 9 ng/mL muRANKL (R & D systems, Minneapolis, Minn.) was added. The medium was changed every 3 days depending on acidification, and the assay was terminated as indicated. Recombinant human MSP was prepared and added daily as indicated. Cells were removed with 6% bleach and slides were viewed microscopically using phase-contrast with 20× magnification. Osteolytic resorption area within 5 representative fields was determined using Image J software, experiments were performed in triplicate. Recombinant MSP was prepared as follows (to be described in detail elsewhere): Concentrated, serum-free media from an MCF7 cell line engineered to overexpress MSP was cleaved with kallikrein (Invitrogen, Waltham, Mass.; 4 ng of kallikrein/1 μg of supernatant protein at 37° C. for 2.5 hours). The reaction was diluted to 20 mL with 10 mM sodium phosphate, pH 7.4 and loaded onto a 5 mL HiTrap heparin column (Millipore, Billerica, Mass.) equilibrated with 20 mL of 10 mM sodium phosphate, pH 7.4, at a rate of 1 mL/min. The column was washed with 10 mL of 10 mM sodium phosphate, pH 7.4, at a rate of 1 mL/min. […]

[2] = system: bone marrow osteoclasts; experiment: Osteoclast survival assay; conditions: 100 pg/mL MSP daily from day 7 for 48 hours
Protocol: (§1) Bone marrow precursor cells were thawed and seeded at a density of 2×10^5 cells per well in a 24-well plate containing glass coverslips in α-MEM media containing 10% FBS and antibiotics. After adhering overnight, media was removed and media containing 33 ng/mL hM-CSF and 9 ng/mL muRANKL was added. Cells were allowed to differentiate for 7 days with media changed every 3 days. Coverslips were then imaged microscopically using phase contrast to determine osteoclast number in each well. To test survival, factor-containing media was removed and α-MEM media containing 10% FBS was added as well as MSP as indicated. Cells were cultured for an additional 48 hours, fixed with 10% NBF for 10 minutes and washed with 1×PBS. For TRAP fluorescent staining, the leukocyte acid phosphatase kit (Sigma, St. Louis, Mo.) was used according to the manufacturer's instructions, with the substitution of 200 μM ELF97 (Invitrogen, Waltham, Mass.) as a phosphatase substrate. Coverslips were incubated in TRAP solution for 15 minutes at 37 degrees, washed with 1×PBS and counterstained with DAPI. The number of multinucleated TRAP+ cells (containing 4 or more nuclei) within 5 representative fields were included for quantification. Experiments were performed in triplicate.

[3] = system: WT bone marrow precursor cells; experiment: Osteoclast differentiation (TRAP+ osteoclasts); conditions: 100 pg/mL MSP in presence of M-CSF and RANKL
Protocol: as §1, with “Coverslips were incubated in TRAP solution for 15 minutes at 37 degrees, washed with 1×PBS and counterstained with DAPI.” left out, “Experiments were performed in triplicate.” left out
M-CSF and RANKL were present continuously beginning on day 1 until experimental analysis. […] TRAP+ cells were identified by fluorescent TRAP stain and cells with 4 or more nuclei were counted (***p<0.0001). […]

[4] = system: c-Src; experiment: Western blot of osteoclast lysates, phospho-Src
Protocol: Cells were serum starved (0.5% FBS) for 3 hours prior to lysate collection. Inhibitors were added 1 hour prior to lysis and MSP was added 15 min prior to lysis when indicated. Cells were washed with 1×PBS and harvested in lysis buffer (25 mM Tris-HCl, pH 7.5, 0.42 M NaCl, 1.5 mM MgCl2, 0.5 mM EDTA, 1 mM DTT, 25% sucrose, and 0.1% Triton X-100) plus 100× protease arrest (Bioscience, Bozeman, Mont.) and 100× orthovanadate. Primary antibodies used for immunoblotting include: anti-MSP (Santa Cruz, sc-6090, Dallas, Tex.) at a 1:250 dilution, anti-pan Akt (Cell Signaling, #4691S, Beverly, Mass.) at a 1:1000 dilution, anti-pan Erk (Cell Signaling, #4695, Beverly, Mass.) at a 1:1000 dilution, anti-phospho Akt (Cell Signaling, #9271 L, Beverly, Mass.) at a 1:500 dilution, anti-phospho Erk (Cell Signaling, #4370S, Beverly, Mass.) at a 1:500 dilution, anti-Src (Cell Signaling, #2110, Beverly, Mass.) at a 1:500 dilution, and anti-phospho Src (Y416) (Cell Signaling, #2113, Beverly, Mass.) at a 1:500 dilution. The secondary antibodies used were HRP-conjugated anti-goat IgG (Santa Cruz, Dallas, Tex.) and anti-rabbit IgG (Santa Cruz, Dallas, Tex.). Chemiluminescent signals were detected using Immun-Star HRP (BioRad, Hercules, Calif.).

B1: MSP: recombinant human macrophage-stimulating protein, the RON ligand (protein)
chain: QRSPLNDFQVLRGTELQHLLHAVVPGPWQEDVADAEECAGRCGPLMDCRAFHYNVSSHGCQLLPWTQHSPHTRLRRSGRCDLFQKKDYVRTCIMNNGVGYRGTMATTVGGLPCQAWSHKFPNDHKYTPTLRNGLEENFCRNPDGDPGGPWCYTTDPAVRFQSCGIKSCREAACVWCNGEEYRGAVDRTESGRECQRWDLQHPHQHPFEPGKFLDQGLDDNYCRNPDGSERPWCYTTDPQIEREFCDLPRCGSEAQPRQEATTVSCFRGKGEGYRGTANTTTAGVPCQRWDAQIPHQHRFTPEKYACKDLRENFCRNPDGSEAPWCFTLRPGMRAAFCYQIRRCTDDVRPQDCYHGAGEQYRGTVSKTRKGVQCQRWSAETPHKPQFTFTSEPHAQLEENFCRNPDGDSHGPWCYTMDPRTPFDYCALRRCADDQPPSILDPPDQVQFEKCGKRVDRLDQRRSKLRVVGGHPGNSPWTVSLRNRQGQHFCGGSLVKEQWILTARQCFSSCHMPLTGYEVWLGTLFQNPQHGEPSLQRVPVAKMVCGPSGSQLVLLKLERSVTLNQRVALICLPPEWYVVPPGTKCEIAGWGETKGTGNDTVLNVALLNVISNQECNIKHRGRVRESEMCTEGLLAPVGACEGDYGGPLACFTHNCWVLEGIIIPNRVCARSRWPAVFTRVSVFVDWIHKVMRLG
modifications: left off: small tags and cut ends
notes: recombinant human macrophage-stimulating protein, the RON ligand
With B1 the “resorptive capacity of RonTK−/− osteoclasts” value [1] was “no effect”, the “resorptive capacity of WT osteoclasts” value [1] was “significant increase” and the “number of surviving osteoclasts without RANKL and M-CSF” value [2] was “significantly augmented”. For the same molecule, the osteoclast differentiation [3] was “did not increase osteoclast differentiation” and the “phosphorylated c-Src in WT osteoclasts” value [4] was “increased Src phosphorylation”.
